Article PMC3142617 (Cell host & microbe, 2011)

How the values were obtained:
[1] = target: the molecule itself; test: AUC
[2] = target: the molecule itself; test: SEC-MALS

B1: L6TIR (L6 TIR domain, residues 29-229) (domain or fragment, flax (Linum usitatissimum))
chain: SNAKDSIVNDDDDSTSEVDAISDSTNPSGSFPSVEYEVFLSFRGPDTREQFTDFLYQSLRRYKIHTFRDDDELLKGKEIGPNLLRAIDQSKIYVPIISSGYADSKWCLMELAEIVRRQEEDPRRIILPIFYMVDPSDVRHQTGCYKKAFRKHANKFDGQTIQNWKDALKKVGDLKGWHIGKNDKQGAIADKVSADIWSHISKEN
B1 was tested, and the Kd [1] was 20.3 µM, the “stoichiometry N” value [1] was 2 and the “stoichiometry N” value [2] was roughly 2.
